What is called IC50 is the point on the concentration scale where inhibition reaches its midpoint. The low end stands for greater potency in that assay, the high end for weaker potency in that assay.

IC50 data for eleven molecules are collected here from US20240018188A1.

[ ]: non-standard residue; d: D form. The star is where a group is joined. Dansyl = CN(C)c1cccc2c(S(=O)(=O)*)cccc12; 2Nal = N[C@@H](Cc1ccc2ccccc2c1)C(=O)O; dNle = CCCC[C@@H](N)C(=O)O; Ahx = NCCCCCC(=O)O; βAla = NCCC(=O)O; Sar = CNCC(=O)O

For the assay, the target named is human RAD51 (human) (UniProt Q06609). Put plainly: cell-based or functional assay.
Chain of human RAD51 (human) (Q06609 2-339 limits assumed): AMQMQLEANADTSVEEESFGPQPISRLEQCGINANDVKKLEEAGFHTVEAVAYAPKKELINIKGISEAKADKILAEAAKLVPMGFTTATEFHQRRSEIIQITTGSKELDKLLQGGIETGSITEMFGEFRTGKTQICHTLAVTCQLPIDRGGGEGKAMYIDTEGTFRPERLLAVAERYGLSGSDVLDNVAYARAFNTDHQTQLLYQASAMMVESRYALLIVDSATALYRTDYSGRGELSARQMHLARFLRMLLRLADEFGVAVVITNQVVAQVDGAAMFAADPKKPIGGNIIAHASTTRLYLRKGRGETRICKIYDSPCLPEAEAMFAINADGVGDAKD

B1: Compound 24 (peptide)
peptide: Ac-[dL][dNle][dR][dA][dV][dR][dL][dR][dV][βAla][dL][dR][Ahx][dR][Ahx][dR][Ahx][dR][Ahx][dR][Ahx][dR][Ahx][dY]-NH2
SMILES: CCCC[C@@H](NC(=O)[C@@H](CC(C)C)NC(C)=O)C(=O)N[C@H](CCCNC(=N)N)C(=O)N[C@H](C)C(=O)N[C@@H](C(=O)N[C@H](CCCNC(=N)N)C(=O)N[C@H](CC(C)C)C(=O)N[C@H](CCCNC(=N)N)C(=O)N[C@@H](C(=O)NCCC(=O)N[C@H](CC(C)C)C(=O)N[C@H](CCCNC(=N)N)C(=O)NCCCCCC(=O)N[C@H](CCCNC(=N)N)C(=O)NCCCCCC(=O)N[C@H](CCCNC(=N)N)C(=O)NCCCCCC(=O)N[C@H](CCCNC(=N)N)C(=O)NCCCCCC(=O)N[C@H](CCCNC(=N)N)C(=O)NCCCCCC(=O)N[C@H](CCCNC(=N)N)C(=O)NCCCCCC(=O)N[C@H](Cc1ccc(O)cc1)C(N)=O)C(C)C)C(C)C
Regarding B1, the IC50 is 6.2 µM.

B2: Compound 25 (peptide)
peptide: Ac-[dL][dNle][dR][dS][dV][dR][dL][dR][dV]G[dL][dR][Ahx][dR][Ahx][dR][Ahx][dR][Ahx][dR][Ahx][dR]-NH2
SMILES: CCCC[C@@H](NC(=O)[C@@H](CC(C)C)NC(C)=O)C(=O)N[C@H](CCCNC(=N)N)C(=O)N[C@H](CO)C(=O)N[C@@H](C(=O)N[C@H](CCCNC(=N)N)C(=O)N[C@H](CC(C)C)C(=O)N[C@H](CCCNC(=N)N)C(=O)N[C@@H](C(=O)NCC(=O)N[C@H](CC(C)C)C(=O)N[C@H](CCCNC(=N)N)C(=O)NCCCCCC(=O)N[C@H](CCCNC(=N)N)C(=O)NCCCCCC(=O)N[C@H](CCCNC(=N)N)C(=O)NCCCCCC(=O)N[C@H](CCCNC(=N)N)C(=O)NCCCCCC(=O)N[C@H](CCCNC(=N)N)C(=O)NCCCCCC(=O)N[C@H](CCCNC(=N)N)C(N)=O)C(C)C)C(C)C
B2 gave a half-maximal inhibitory concentration (IC50) of 14 µM.

B3: Compound 23 (peptide)
peptide: Ac-[dL][dNle][dR][dA][dV][dR][dL][dR][dV][βAla][dL][dR][Ahx][dR][Ahx][dR][Ahx][dR][Ahx][dR][Ahx][dR]-NH2
SMILES: CCCC[C@@H](NC(=O)[C@@H](CC(C)C)NC(C)=O)C(=O)N[C@H](CCCNC(=N)N)C(=O)N[C@H](C)C(=O)N[C@@H](C(=O)N[C@H](CCCNC(=N)N)C(=O)N[C@H](CC(C)C)C(=O)N[C@H](CCCNC(=N)N)C(=O)N[C@@H](C(=O)NCCC(=O)N[C@H](CC(C)C)C(=O)N[C@H](CCCNC(=N)N)C(=O)NCCCCCC(=O)N[C@H](CCCNC(=N)N)C(=O)NCCCCCC(=O)N[C@H](CCCNC(=N)N)C(=O)NCCCCCC(=O)N[C@H](CCCNC(=N)N)C(=O)NCCCCCC(=O)N[C@H](CCCNC(=N)N)C(=O)NCCCCCC(=O)N[C@H](CCCNC(=N)N)C(N)=O)C(C)C)C(C)C
In turn, B3 had an IC50 of 20.6 µM.

B4: Compound 21 (peptide)
peptide: Ac-[dL][dNle][dR][dS][dV][dR][dL][dR][dV]G[dL][dR][dR][dR][dR][dR][dR][Sar][Sar]-OMe
SMILES: CCCC[C@@H](NC(=O)[C@@H](CC(C)C)NC(C)=O)C(=O)N[C@H](CCCNC(=N)N)C(=O)N[C@H](CO)C(=O)N[C@@H](C(=O)N[C@H](CCCNC(=N)N)C(=O)N[C@H](CC(C)C)C(=O)N[C@H](CCCNC(=N)N)C(=O)N[C@@H](C(=O)NCC(=O)N[C@H](CC(C)C)C(=O)N[C@H](CCCNC(=N)N)C(=O)N[C@H](CCCNC(=N)N)C(=O)N[C@H](CCCNC(=N)N)C(=O)N[C@H](CCCNC(=N)N)C(=O)N[C@H](CCCNC(=N)N)C(=O)N[C@H](CCCNC(=N)N)C(=O)N(C)CC(=O)N(C)CC(=O)OC)C(C)C)C(C)C
As to B4, the IC50 was determined as 25 µM.

B5: Compound 20 (peptide)
peptide: Dansyl-[Sar][dL][dNle][dR][dS][dV][dR][dL][dR][dV]G[dL][dR][dR][dR][dR][dR][dR][Sar][Sar]-OMe
SMILES: CCCC[C@@H](NC(=O)[C@@H](CC(C)C)NC(=O)CN(C)S(=O)(=O)c1cccc2c(N(C)C)cccc12)C(=O)N[C@H](CCCNC(=N)N)C(=O)N[C@H](CO)C(=O)N[C@@H](C(=O)N[C@H](CCCNC(=N)N)C(=O)N[C@H](CC(C)C)C(=O)N[C@H](CCCNC(=N)N)C(=O)N[C@@H](C(=O)NCC(=O)N[C@H](CC(C)C)C(=O)N[C@H](CCCNC(=N)N)C(=O)N[C@H](CCCNC(=N)N)C(=O)N[C@H](CCCNC(=N)N)C(=O)N[C@H](CCCNC(=N)N)C(=O)N[C@H](CCCNC(=N)N)C(=O)N[C@H](CCCNC(=N)N)C(=O)N(C)CC(=O)N(C)CC(=O)OC)C(C)C)C(C)C
In turn, B5 registered an IC50 of 8.6 µM.

B6: Compound 17 (peptide)
peptide: Ac-[dL][dNle][dR][dS][dV][dR][dL][dR][dV][βAla][dL][dR][dK][dR][dR][dR][dR][dR]G[2Nal]-NH2
SMILES: CCCC[C@@H](NC(=O)[C@@H](CC(C)C)NC(C)=O)C(=O)N[C@H](CCCNC(=N)N)C(=O)N[C@H](CO)C(=O)N[C@@H](C(=O)N[C@H](CCCNC(=N)N)C(=O)N[C@H](CC(C)C)C(=O)N[C@H](CCCNC(=N)N)C(=O)N[C@@H](C(=O)NCCC(=O)N[C@H](CC(C)C)C(=O)N[C@H](CCCNC(=N)N)C(=O)N[C@H](CCCCN)C(=O)N[C@H](CCCNC(=N)N)C(=O)N[C@H](CCCNC(=N)N)C(=O)N[C@H](CCCNC(=N)N)C(=O)N[C@H](CCCNC(=N)N)C(=O)N[C@H](CCCNC(=N)N)C(=O)NCC(=O)N[C@@H](Cc1ccc2ccccc2c1)C(N)=O)C(C)C)C(C)C
As to B6, the IC50 was 20 µM.

B7: Compound 22 (peptide)
peptide: Ac-[dL][dNle][dR][βAla][dV][dR][dL][dR][dV][βAla][dL][dR][dK][dR][dR][dR][dR][dR]G[2Nal]-NH2
SMILES: CCCC[C@@H](NC(=O)[C@@H](CC(C)C)NC(C)=O)C(=O)N[C@H](CCCNC(=N)N)C(=O)NCCC(=O)N[C@@H](C(=O)N[C@H](CCCNC(=N)N)C(=O)N[C@H](CC(C)C)C(=O)N[C@H](CCCNC(=N)N)C(=O)N[C@@H](C(=O)NCCC(=O)N[C@H](CC(C)C)C(=O)N[C@H](CCCNC(=N)N)C(=O)N[C@H](CCCCN)C(=O)N[C@H](CCCNC(=N)N)C(=O)N[C@H](CCCNC(=N)N)C(=O)N[C@H](CCCNC(=N)N)C(=O)N[C@H](CCCNC(=N)N)C(=O)N[C@H](CCCNC(=N)N)C(=O)NCC(=O)N[C@@H](Cc1ccc2ccccc2c1)C(N)=O)C(C)C)C(C)C
B7 registered an IC50 of 18 µM.

B8: Compound 12 (peptide)
peptide: Ac-[dL][dNle][dR]G[dV][dR][dL][dR][dV]G[dL][dR][dK][dR][dR][dR][dR][dR]G[2Nal]-NH2
SMILES: CCCC[C@@H](NC(=O)[C@@H](CC(C)C)NC(C)=O)C(=O)N[C@H](CCCNC(=N)N)C(=O)NCC(=O)N[C@@H](C(=O)N[C@H](CCCNC(=N)N)C(=O)N[C@H](CC(C)C)C(=O)N[C@H](CCCNC(=N)N)C(=O)N[C@@H](C(=O)NCC(=O)N[C@H](CC(C)C)C(=O)N[C@H](CCCNC(=N)N)C(=O)N[C@H](CCCCN)C(=O)N[C@H](CCCNC(=N)N)C(=O)N[C@H](CCCNC(=N)N)C(=O)N[C@H](CCCNC(=N)N)C(=O)N[C@H](CCCNC(=N)N)C(=O)N[C@H](CCCNC(=N)N)C(=O)NCC(=O)N[C@@H](Cc1ccc2ccccc2c1)C(N)=O)C(C)C)C(C)C
B8: the IC50 came to 17 µM.

B9: Compound 19 (peptide)
peptide: Dansyl-[Sar][dL][dNle][dR][dS][dV][dR][dL][dR][dV]G[dL][dR][dK][dR][dR][dR][dR][dR]-NH2
SMILES: CCCC[C@@H](NC(=O)[C@@H](CC(C)C)NC(=O)CN(C)S(=O)(=O)c1cccc2c(N(C)C)cccc12)C(=O)N[C@H](CCCNC(=N)N)C(=O)N[C@H](CO)C(=O)N[C@@H](C(=O)N[C@H](CCCNC(=N)N)C(=O)N[C@H](CC(C)C)C(=O)N[C@H](CCCNC(=N)N)C(=O)N[C@@H](C(=O)NCC(=O)N[C@H](CC(C)C)C(=O)N[C@H](CCCNC(=N)N)C(=O)N[C@H](CCCCN)C(=O)N[C@H](CCCNC(=N)N)C(=O)N[C@H](CCCNC(=N)N)C(=O)N[C@H](CCCNC(=N)N)C(=O)N[C@H](CCCNC(=N)N)C(=O)N[C@H](CCCNC(=N)N)C(N)=O)C(C)C)C(C)C
Molecule B9 came in with a 50% inhibitory concentration (IC50) of 6.2 µM.

B10: Compound 14 (peptide)
peptide: Ac-[dL][dNle][dR][dS][dR][dR][dL][dR][dV]G[dL][dR][dK][dR][dR][dR][dR][dR]G[2Nal]-NH2
SMILES: CCCC[C@@H](NC(=O)[C@@H](CC(C)C)NC(C)=O)C(=O)N[C@H](CCCNC(=N)N)C(=O)N[C@H](CO)C(=O)N[C@H](CCCNC(=N)N)C(=O)N[C@H](CCCNC(=N)N)C(=O)N[C@H](CC(C)C)C(=O)N[C@H](CCCNC(=N)N)C(=O)N[C@@H](C(=O)NCC(=O)N[C@H](CC(C)C)C(=O)N[C@H](CCCNC(=N)N)C(=O)N[C@H](CCCCN)C(=O)N[C@H](CCCNC(=N)N)C(=O)N[C@H](CCCNC(=N)N)C(=O)N[C@H](CCCNC(=N)N)C(=O)N[C@H](CCCNC(=N)N)C(=O)N[C@H](CCCNC(=N)N)C(=O)NCC(=O)N[C@@H](Cc1ccc2ccccc2c1)C(N)=O)C(C)C
B10 returned a half-maximal inhibitory concentration (IC50) of 3500 µM.

B11: Compound 16 (peptide)
peptide: Ac-[dL][dNle][dR][dS][dV][dR][dL][dR][dNle]G[dL][dR][dK][dR][dR][dR][dR][dR]G[2Nal]-NH2
SMILES: CCCC[C@@H](NC(=O)[C@@H](CCCNC(=N)N)NC(=O)[C@@H](CC(C)C)NC(=O)[C@@H](CCCNC(=N)N)NC(=O)[C@H](NC(=O)[C@@H](CO)NC(=O)[C@@H](CCCNC(=N)N)NC(=O)[C@@H](CCCC)NC(=O)[C@@H](CC(C)C)NC(C)=O)C(C)C)C(=O)NCC(=O)N[C@H](CC(C)C)C(=O)N[C@H](CCCNC(=N)N)C(=O)N[C@H](CCCCN)C(=O)N[C@H](CCCNC(=N)N)C(=O)N[C@H](CCCNC(=N)N)C(=O)N[C@H](CCCNC(=N)N)C(=O)N[C@H](CCCNC(=N)N)C(=O)N[C@H](CCCNC(=N)N)C(=O)NCC(=O)N[C@@H](Cc1ccc2ccccc2c1)C(N)=O
B11 registered an IC50 of 43 µM.
